From patent US20080194482A1, “Selective Apac2 Receptor Peptide Agonists” (priority 2005, published 2008)
Numbered stars: 1 amine (or outer) side, 2 acyl side, 3 side chain; on linkers, the order of the positions; unused ones are H or OH. Square brackets hold non-standard residues; d marks the D form. Ends that are not written are not given here. Peptide text beside a SMILES is read from it. * marks the point of attachment. Tyr(OMe) = O-methyl-tyrosine, COc1ccc(C[C@H](N[*:1])C(=O)[*:2])cc1; Orn = NCCC[C@H](N)C(=O)O; Hexanoyl = CCCCCC(=O)*; Aib = CC(C)(N)C(=O)O

T1: human PAC1 (Homo sapiens, UniProt P41586)
T1 construct: expressed in transfected cells
T1 sequence (P41586 21-468): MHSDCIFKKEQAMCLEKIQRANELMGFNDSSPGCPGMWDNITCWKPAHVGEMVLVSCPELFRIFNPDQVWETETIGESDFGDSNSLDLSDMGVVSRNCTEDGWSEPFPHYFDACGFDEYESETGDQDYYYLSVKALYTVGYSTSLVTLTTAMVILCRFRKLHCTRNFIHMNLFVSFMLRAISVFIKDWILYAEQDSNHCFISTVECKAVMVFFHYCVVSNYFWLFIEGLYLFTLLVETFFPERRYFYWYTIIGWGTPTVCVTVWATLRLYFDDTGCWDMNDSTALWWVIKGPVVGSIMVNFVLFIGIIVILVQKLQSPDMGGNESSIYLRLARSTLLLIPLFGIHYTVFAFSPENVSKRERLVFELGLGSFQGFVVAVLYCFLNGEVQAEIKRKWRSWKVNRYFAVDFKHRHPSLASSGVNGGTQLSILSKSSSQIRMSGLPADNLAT

T2: human VPAC2 receptor (human, UniProt P41587 24-438)
T2 sequence (looked up): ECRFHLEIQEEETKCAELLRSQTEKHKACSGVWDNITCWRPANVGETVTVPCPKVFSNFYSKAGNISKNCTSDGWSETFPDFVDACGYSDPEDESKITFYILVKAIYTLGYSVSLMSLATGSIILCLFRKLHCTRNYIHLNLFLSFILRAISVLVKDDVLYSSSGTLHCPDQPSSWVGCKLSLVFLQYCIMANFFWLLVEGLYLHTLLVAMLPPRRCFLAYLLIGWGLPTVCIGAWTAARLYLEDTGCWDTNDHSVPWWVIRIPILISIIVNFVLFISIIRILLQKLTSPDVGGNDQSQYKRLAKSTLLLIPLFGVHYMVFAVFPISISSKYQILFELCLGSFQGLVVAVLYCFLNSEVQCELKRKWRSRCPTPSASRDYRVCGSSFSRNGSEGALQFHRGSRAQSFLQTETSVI

T3: rat VPAC1 receptor (rat, UniProt P30083 31-459)
T3 sequence (looked up): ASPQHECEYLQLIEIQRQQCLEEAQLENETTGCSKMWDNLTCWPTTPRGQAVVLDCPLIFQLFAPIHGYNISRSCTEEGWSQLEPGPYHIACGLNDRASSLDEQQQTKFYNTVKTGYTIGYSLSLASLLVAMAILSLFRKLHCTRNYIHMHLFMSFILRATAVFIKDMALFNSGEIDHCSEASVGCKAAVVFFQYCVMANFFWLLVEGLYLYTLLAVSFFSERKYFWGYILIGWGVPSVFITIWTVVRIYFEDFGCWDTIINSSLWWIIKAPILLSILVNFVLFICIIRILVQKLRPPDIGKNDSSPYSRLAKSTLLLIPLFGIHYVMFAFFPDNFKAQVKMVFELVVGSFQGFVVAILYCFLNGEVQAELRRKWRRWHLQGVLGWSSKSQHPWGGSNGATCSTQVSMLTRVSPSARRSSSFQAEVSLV

T4: rat VPAC2 receptor (rat, UniProt P35000 23-437)
T4 sequence (looked up): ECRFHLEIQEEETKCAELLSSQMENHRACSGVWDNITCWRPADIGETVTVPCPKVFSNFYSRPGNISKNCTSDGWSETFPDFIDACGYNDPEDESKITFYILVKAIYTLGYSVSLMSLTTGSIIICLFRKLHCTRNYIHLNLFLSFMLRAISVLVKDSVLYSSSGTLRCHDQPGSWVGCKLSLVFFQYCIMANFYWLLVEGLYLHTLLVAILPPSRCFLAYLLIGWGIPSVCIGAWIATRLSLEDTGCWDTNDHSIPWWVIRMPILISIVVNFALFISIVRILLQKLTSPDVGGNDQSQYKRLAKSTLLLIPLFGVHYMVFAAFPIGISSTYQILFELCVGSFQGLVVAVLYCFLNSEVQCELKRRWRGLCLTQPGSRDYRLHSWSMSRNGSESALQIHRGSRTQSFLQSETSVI


Key:
[1] = target: T1, human PAC1; assay: Filter binding assay, 125I-labeled PACAP-27 tracer, PAC1 membranes; settings: read-out: Human PAC1 Receptor Binding (IC50; nM)
Description: For this assay, the solutions and equipment include:
Presoak solution: 0.5% Polyethyleneamine in Aqua dest
Buffer for flushing filter plates: 25 mM HEPES pH 7.4
Blocking buffer: 25 mM HEPES pH 7.4; 0.2% protease free BSA
Assay buffer: 25 mM HEPES pH 7.4; 0.5% protease free BSA
Dilution and assay plate: PS-Microplate, U form
Filtration Plate: Multiscreen FB Opaque Plate; 1.0 μM Type B Glasfiber filter
In order to prepare the filter plates, the presoak solution is aspirated by vacuum filtration. The plates are flushed twice with 200 μL flush buffer. 200 μL blocking buffer is added to the filter plate. The filter plate is then incubated with 200 μL presoak solution for 1 hour at room temperature.
The assay plate is filled with 25 μL assay buffer, 25 μL membranes (2.5 μg) suspended in assay buffer, 25 μL compound (agonist) in assay buffer, and 25 μL tracer (about 40000 cpm) in assay buffer. The filled plate is incubated for 1 hour with shaking.
The transfer from assay plate to filter plate is conducted. The blocking buffer is aspirated by vacuum filtration and washed two times with flush buffer. 90 μL is transferred from the assay plate to the filter plate. The 90 μL transferred from assay plate is aspirated and washed three times with 200 μL flush buffer. The plastic support is removed. It is dried for 1 hour at 60° C. 30 μL Microscint is added. The count is performed.

[2] = target: T2, human VPAC2 receptor; assay: cell-based or functional assay
[3] = target: T3, rat VPAC1 receptor; assay: cell-based or functional assay
[4] = target: T4, rat VPAC2 receptor; assay: cell-based or functional assay
[5] = target: T2, human VPAC2 receptor; assay: filter binding, human VPAC2 membranes, competition with 125I-VIP;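 further: assay plate incubated 1 h with shaking, then filtered, with filter-retained counts measured after adding scintillant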

Row | Molecule | IC50 [1] | Human VPAC2 Receptor: Alpha Screen (EC50; nM), cAMP generation [2] | Rat VPAC1 Receptor: DiscoveRx (EC50; nM), cAMP generation [3] | Rat VPAC2 Receptor: DiscoveRx (EC50; nM), cAMP generation [4] | IC50 [5]
1 | CCCCCC(=O)N[C@@H](Cc1c[nH]cn1)C(=O)N[C@@H](CO)C(=O)N[C@@H](CCC(=O)O)C(=O)N[C@@H](C)C(=O)N[C@H](C(=O)N[C@@H](Cc1ccccc1)C(=O)N[C@H](C(=O)N[C@@H](CCC(=O)O)C(=O)N[C@@H](CCC(N)=O)C(=O)N[C@@H](Cc1ccc(OC)cc1)C(=O)N[C@H](C(=O)N[C@@H](CCCN)C(=O)N[C@@H](CC(C)C)C(=O)N[C@@H](CCCNC(=N)N)C(=O)NC(C)(C)C(=O)N[C@@H](CCC(N)=O)C(=O)N[C@@H](CC(C)C)C(=O)N[C@@H](C)C(=O)N[C@@H](C)C(=O)NC(C)(C)C(=O)N[C@@H](CCCN)C(=O)N[C@@H](Cc1ccc(O)cc1)C(=O)N[C@@H](CC(C)C)C(=O)N[C@@H](CCC(N)=O)C(=O)N[C@@H](CO)C(=O)N[C@H](C(=O)N[C@@H](CCCN)C(=O)N[C@@H](CCCN)C(=O)NCC(=O)NCC(=O)N1CCC[C@H]1C(=O)N[C@@H](CO)C(=O)N[C@@H](CO)C(=O)NCC(=O)N[C@@H](C)C(=O)N1CCC[C@H]1C(=O)N1CCC[C@H]1C(=O)N1CCC[C@H]1C(=O)N[C@@H](CO)C(=O)O)[C@@H](C)CC)[C@@H](C)O)[C@@H](C)O)C(C)C [Agonist P393] (Hexanoyl-HSEAVFTEQY(Me)T[Orn]LR[Aib]QLAA[Aib][Orn]YLQSI[Orn][Orn]GGPSSGAPPPS-OH; C-terminus assumed) | > 25000 nM |  |  |  | 
2 | CCCCCC(=O)N[C@@H](Cc1c[nH]cn1)C(=O)N[C@@H](CO)C(=O)N[C@@H](CC(=O)O)C(=O)N[C@@H](C)C(=O)N[C@H](C(=O)N[C@@H](Cc1ccccc1)C(=O)N[C@H](C(=O)N[C@@H](CC(=O)O)C(=O)N[C@@H](CO)C(=O)N[C@@H](Cc1ccc(O)cc1)C(=O)N[C@H](C(=O)N[C@@H](CCCN)C(=O)N[C@@H](CC(C)C)C(=O)N[C@@H](CCCNC(=N)N)C(=O)NC(C)(C)C(=O)N[C@@H](CCC(N)=O)C(=O)N[C@H](C(=O)N[C@@H](C)C(=O)N[C@@H](C)C(=O)NC(C)(C)C(=O)N[C@@H](CCCCN)C(=O)N[C@@H](Cc1ccc(O)cc1)C(=O)N[C@@H](CC(C)C)C(=O)N[C@@H](CCC(N)=O)C(=O)N[C@@H](CO)C(=O)N[C@H](C(=O)N[C@@H](CCCN)C(=O)N[C@@H](CC(N)=O)C(=O)N[C@@H](CCCN)C(=O)NCC(=O)NCC(=O)N1CCC[C@H]1C(=O)N[C@@H](CO)C(=O)N[C@@H](CO)C(=O)NCC(=O)N[C@@H](C)C(=O)N1CCC[C@H]1C(=O)N1CCC[C@H]1C(=O)N1CCC[C@H]1C(=O)N[C@@H](CO)C(=O)O)[C@@H](C)CC)C(C)C)[C@@H](C)O)[C@@H](C)O)C(C)C [Agonist P392] (Hexanoyl-HSDAVFTDSYT[Orn]LR[Aib]QVAA[Aib]KYLQSI[Orn]N[Orn]GGPSSGAPPPS-OH; C-terminus assumed) | > 25000 nM |  |  |  | 
3 | HSDAVFTDNYTRLRXQVAAXKYLQSIKXXGGPSSGAPPPS (N-terminal hexanoyl (C6); Aib at 15, 20 and 28; Orn at 29) [VPAC2 receptor peptide agonist P357] |  | 0.23 nM | 0.69 nM | 0.07 nM | 0.32 nM
4 | Hexanoyl-HSDAVFTDSYT[Orn]LR[Aib]QVAA[Aib]KYLQSI[Orn]N[Orn]GGPSSGAPPPS [VPAC2 receptor peptide agonist P392] |  | 0.21 nM | 0.71 nM | 0.08 nM | 0.45 nM
5 | HSDAVFTDNYTXLRXSVAAXKYLQSIXNXGGPSSGAPPPS (N-terminal hexanoyl (C6); Orn at 12, 27 and 29; Aib at 15 and 20) [VPAC2 receptor peptide agonist P390] |  | 0.12 nM | 1.34 nM | 0.09 nM | 
6 | Hexanoyl-HSEAVFTENYT[Orn]LR[Aib]QVAA[Aib]KYLQSI[Orn]N[Orn]GGPSSGAPPPS [VPAC2 receptor peptide agonist P362] |  | 0.58 nM | 35.9 nM | 1.22 nM | 1.91 nM
7 | HSDAVFTDNYTXLRXQVAAXKYLQSIKNKRYGGPSSGAPPPS (N-terminal hexanoyl (C6); hR (homoarginine) at 12; Aib at 15 and 20) [VPAC2 receptor peptide agonist P343] |  | 0.29 nM | 2.62 nM | 0.15 nM | 0.85 nM
8 | HSDAVFTEQYTXLRXQLAAXXYLQSIXXGGPSSGAPPPS (N-terminal hexanoyl (C6); Tyr(OMe) at 10 and 22; Orn at 12, 21, 27 and 28; Aib at 15 and 20) [VPAC2 receptor peptide agonist P418] |  | 3.11 nM | 7.76 nM | 0.57 nM | 8.96 nM
9 | HSDAVFTDQYTXLRXQVAAXXYLQSIXXGGPSSGAPPPS (N-terminal hexanoyl (C6); Orn at 12, 21, 27 and 28; Aib at 15 and 20) [VPAC2 receptor peptide agonist P396] |  | 0.11 nM | 1.05 nM | 0.05 nM | 
10 | HSDAVFTDNYTXLRXQVAAXXYLQSIXXGGPSSGAPPPS (N-terminal hexanoyl (C6); Orn at 12, 21, 27 and 28; Aib at 15 and 20) [VPAC2 receptor peptide agonist P397] |  | 0.15 nM |  |  | 0.5 nM
11 | HSDAVFTEQYTXLRXQLAAXXYLQSIXXGGPSSGAPPPS (N-terminal hexanoyl (C6); Tyr(OMe) at 10; Orn at 12, 21, 27 and 28; Aib at 15 and 20; C-terminal amide (-NH2)) [VPAC2 receptor peptide agonist P487] |  | 0.24 nM | 1.42 nM | 0.03 nM | 
12 | HSEAVFTEQYTXLRXQLAAXXYLQSIXXGGPSSGAPPPS (N-terminal hexanoyl (C6); Tyr(OMe) at 10; Orn at 12, 21, 27 and 28; Aib at 15 and 20) [VPAC2 receptor peptide agonist P393] |  | 0.31 nM | 16 nM | 0.17 nM | 0.74 nM
13 | HSDAVFTDQYTXLRXQLAAXXYLQSIXXGGPSSGAPPPS (N-terminal hexanoyl (C6); Orn at 12, 21, 27 and 28; Aib at 15 and 20) [VPAC2 receptor peptide agonist P395] |  | 0.15 nM | 0.35 nM | 0.03 nM | 
14 | Hexanoyl-HSDAVFTDNYT[Orn]LLAKLALQKYLQSI[Orn]N[Orn]GGPSSGAPPPS [VPAC2 receptor peptide agonist P371] |  | 0.13 nM |  |  | 0.34 nM
15 | Hexanoyl-HSDAVFTDNYTLLR[Aib]QVAA[Aib]KYLQSI[Orn]N[Orn]GGPSSGAPPPS [VPAC2 receptor peptide agonist P367] |  | 6.5 nM | 75.3 nM | 6.14 nM | 
16 | Hexanoyl-HSDAVFTDQYTR[Aib]R[Aib]QVAA[Aib]KYLQSIK[Aib]KGGPSSGAPPPS [VPAC2 receptor peptide agonist P406] |  | 0.12 nM |  | 0.04 nM | 0.27 nM
17 | Hexanoyl-HSDAVFTDQ[Tyr(OMe)]TR[Aib]R[Aib]QLAA[Aib]KYLQSIK[Aib]KGGPSSGAPPPS [VPAC2 receptor peptide agonist P408] |  | 0.12 nM | 0.35 nM | 0.04 nM | 0.48 nM
